Test results from the nanobody polyreactivity screen of Harvey et al. (2022).

Assay: yeast display, Sf9 membrane polyspecificity reagent, FACS + sequencing; frameworks hold sequencing errors
Method in brief: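 Sorting gates, low and high (top ~1%), were placed on anti-HA fluorescence to track expression and on streptavidin fluorescence to track reagent binding. A clone's polyreactivity label is taken from the gate it came out of. The reagent was 10% biotinylated, detergent-solubilized Sf9 membrane, applied for 1 hour at 4 °C to galactose-induced yeast display cells.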

| Sequence | polyreactivity (PSR sort gate) |
| --- | --- |
| QVQLVESGGGLVQAGGSLRLSCAASGSILAYYGMGWYRQAPGKEREFVAAISNRGGSTYYADSVKGRFTISRDNAKNTVYLQLNSLKPEDTAVYYCARELYRRVWHHWAYWAAYDYWGQGTQVTVSS | low polyreactivity |
| QVQLVESGGGLVQAGGSLRLSCAASGSILDGYVMGWYRQAPGKDRELVAAISTNSDRTYYADSVKGRFTISRDNAKNTVDLQMNSLKPEDTAVYYCNARKLRRAGFPYDYWGQGTQVTVSS | high polyreactivity |
| QVQLVESGGGLVQAGGSLRLSCAASGSILDSNAMGWYRQAPGKERELVAAITSGGSTYYADSVKGRFTISRDNAKNTVYLLMNSLKPEDTAVYYCAAAYLGYGAVQPSYEGGYWGQGTQVTVSS | low polyreactivity |
| QVQLVESGGGLVQAGGSLRLSCAASGSILDYKVMGWYRQPPGKERELVAAIRGGGSTYYADSVKGRFTISRDNAKNTVYLQMNSLKPEVTAVYYCAKDSQTARDFDYWGQGTQVTVSS | low polyreactivity |
| QVQLVESGGGLVQAGGSLRLSCAASGSILESNVMGWYRQAPGKERELVASISSSGDSTYADSVKGRFTISRDNAKNTVYLQMNRLKPEDTAVYYCASDRLYWTYALYYWGQGTQVNVSS | low polyreactivity |
| QVQLVESGGGLVQAGGSLRLSCAASGSILEYYAMGWYRQAPGKERELVAGISSAGNTYYADSVKGRFTISRDNAKNTVYLQMNSLKPEDSAVYYCAAVPWSGEYDYWGQATQVTVSS | low polyreactivity |
| QVQLVESGGGLVQAGGSLRLSCAASGSILFVYAMGWYRQAPGKERELVAGINSSGTSTYADSVKGRFTISRDNAKNTVYLQMNSLKPEDTAVYYCAARWFYYRWAYDYWGQGTQVTVSS | low polyreactivity |
| QVQLVESGGGLVQAGGSLRLSCAASGSILFYNTMGWYRQAPGKERELVASITSGGSTKYADSVKGRFTISRDNAKNTVYLQMNSLKPEDTAVYYCNADRRFYSIYRWHHYYWGQGTQVTVSS | low polyreactivity |
| QVQLVESGGGLVQAGGSLRLSCAASGSILGDYAMGWYRQAPGSEREFVAAIDGSDGSTYYADSVKGRFTISRDNAKNTVYLQMNSLKPEDTAVYYCAATDYDTYRSSWYDYWGQGTQVTVSS | low polyreactivity |
| QVQLVESGGGLVQAGGSLRLSCAASGSILGGNAKGWYRQAPGKERELVAAITFSGGGTYYADSVKGRFTISRDNAKNTVYLQMNSLKPEDTAVYYCAADKDGYTYEFDYWGQGTQVTVSS | low polyreactivity |
| QVQLVESGGGLVQAGGSLRLSCAASGSILGLNAMGWYRQAPGKERELVASISRRGGSTRYADSVKGRFTISRDNAKNTVYLQMNSLKPEDTAVYYCNAYHWDGDGVFYEYDYWGQGTQVTVSS | high polyreactivity |
| QVQLVESGGGLVQAGGSLRLSCAASGSILGPYAMGWYRQAPGKERELVAAISWGGGSTYYADSVKGRFTISRDNAKNTVYLQMNSLKPEDTAVYYCAADFGYYDYDYWGQGTQVTVSS | low polyreactivity |
| QVQLVESGGGLVQAGGSLRLSCAASGSILGTYAMGWYRPAPGKESELVAAISSSGRTSYADTVKGRFTNSRDNAKNTVYLQMKSLKPEDTAVYYCNASNYIVLINDPDAAPWVYDYWGPGTQVTVSS | low polyreactivity |
| QVQLVESGGGLVQAGGSLRLSCAASGSILGYYAMGWYRQAPGKERELVAGIDYSAGSTYYADSVKGRFTISRDNAKNTVYLQMNSLKPEDTAVYYCAADVDSYWGTYDYWGQGTQVTVSS | low polyreactivity |
| QVQLVESGGGLVQAGGSLRLSCAASGSILGYYAMGWYRQAPGTEREFVAAITRSGSRTYYADSVKGRFTISRDNAKNTVNLHMNSLKPEDTAVYYCAKKGLFQGWPTLVDYWGEGTQVTVSS | high polyreactivity |
| QVQLVESGGGLVQAGGSLRLSCAASGSILGYYAMRWYRQAPGKERELVAAITASGGSTYYADSVKGRFTISRDNAKNTVYLQMNSLKPEDTAAYYCAAQYYATYGYWGQGTQVTVSS | low polyreactivity |
| QVQLVESGGGLVQAGGSLRLSCAASGSILHLYAMGWYRQAPGKERELVARINSGGTTNYADSVKGRFTISRDNAKNTVYLQMNSLKPEDTAVYYCAARFTPFITSDDGHYDYWGQGTQVTVSS | low polyreactivity |
| QVQLVESGGGLVQAGGSLRLSCAASGSILIPNAMGWYRQAPGKERELVASISKSGGSTYYADSVKGRFTISRDNAKNTVYLPKNSLKPEDTAVYYCAAAFVSVRKRYGYWGQGTQVTVSS | high polyreactivity |
| QVQLVESGGGLVQAGGSLRLSCAASGSILIYNAMGWYRQAPGKERELVAGISRRGASTYYADSVKGRFTISRDNAKNTVYLQMNSLKPEDTAVYYCAALGKYIVAWSGDYWGHGTQVTVSS | low polyreactivity |
| QVQLVESGGGLVQAGGSLRLSCAASGSILLRYAMGWYRQAPGKEWELVAAIRTIGASTYYADSVKGRFTISRYNAMITVYLQMNSLKPDDTAVYYCNAESASYWYRPGYDYWGQGNQVTVSS | low polyreactivity |
| QVQLVESGGGLVQAGGSLRLSCAASGSILLTNTMGWYRQAPGKERELVADINSGASTNYADSVKGRFTISRDNAKNTVYLQMNSLKPEDTAVYYCAADTKGGTYEYDYWGQGTKVTVSS | low polyreactivity |

| Sequence | polyreactivity (PSR sort gate) |
| --- | --- |
| QVQLVESGGGLVQAGGSLRLSCAASGSILLYYTMGWYRQAPGKERELVASITSGGRTYYADSVKGRFTISRDNAKNTVYLQMNSLKPEDTAVYFCAADVWKLYDYWGQGTQVTVSS | low polyreactivity |
| QVQLVESGGGLVQAGGSLRLSCAASGSILNIYTMGWYRQAPGTERELVAAITSGDITYYADSVKGLFTISRDNAKNTVYLQMISLKPEDTAVYYCAADASSQINEWLSYGEGYNYWGQGTQVTVSS | low polyreactivity |
| QVQLVESGGGLVQAGGSLRLSCAASGSILNNYAMGWYRQAPGKERELVAAISSSGGTNYADSVKGRFTISRDNAKNTVYLQMNSLKPEDTAVYYCNADVLDGGYDYWVQGTQVTVSS | low polyreactivity |
| QVQLVESGGGLVQAGGSLRLSCAASGSILNSYAMGWYRQAPGKERELVASITVIGGSTYYADSVKGRFSISRDNAKNTDYLQMNSLKPEDTAVYYCNKEWIIADAYYGVHDYYYWGQGTQVTVSS | low polyreactivity |
| QVQLVESGGGLVQAGGSLRLSCAASGSILPDYAMGWYRQAPGKERELVASITNSGDSTYYADSVKGRFTISRDNAKNPVYLQMNSLKPEDTAVYYCNADSVRYDYSANDYEYWGQGSQVTVSS | high polyreactivity |
| QVQLVESGGGLVQAGGSLRLSCAASGSILPVNAMGWYRQAPGKERELVAAITSSGSTTYADSVKGRFTISRDNAKNTVYLQMNSLKEEDTAVYYCAADVYWSYYLYYIYKGGYWGQGTQVTVSS | low polyreactivity |
| QVQLVESGGGLVQAGGSLRLSCAASGSILRDHAMGWYRQATGKERELVAAITSGDSTHYADSVKGRFTISRDNAKNTVYLQMNSLKPEDTAVYYCATKWSLISIHGYYYWGQGTQVTVSS | low polyreactivity |
| QVQLVESGGGLVQAGGSLRLSCAASGSILRPNVMGWYRQAPGKERELVARISSRGVNTYYADSVKGRFTLSRDNAKNTVYLQMHSLKPEDTAVFYCNARRAQYYWNRSAKYDYWGQGTQVTVSS | high polyreactivity |
| QVQLVESGGGLVQAGGSLRLSCAASGSILRQYAMGWYRQAPGKERELVATITGDGSTNYADSVKGRFTISRDNAKNTVYLQMNSLKPEDTAVYYCAADQTYTYEYWGQGTQVTVSS | low polyreactivity |
| QVQLVESGGGLVQAGGSLRLSCAASGSILRQYAMGWYRQAPGKERELVATITGDGSTNYADSVKGRFTISRDNAKNTVYLQMNSLKPEDTAVYYCNAELPVHWSWYDYWGQGTQVTVSS | low polyreactivity |
| QVQLVESGGGLVQAGGSLRLSCAASGSILRRYAMGWYRQAPGKEREFVAAISYSGSRTYYADSVKGRFTISRDNAKNTVYLQMNSLKPEDTAVYYCAADSYGSRYEYWGQGTQVTVSS | high polyreactivity |
| QVQLVESGGGLVQAGGSLRLSCAASGSILRSNAMGWYRQAPGKERELVATITNSGGSTYADSVKGCFTISRDNAKNTVYLQMNSLKPEDTAVYYCAKAGAGESIAKYDYWGQGTQVTVSS | low polyreactivity |
| QVQLVESGGGLVQAGGSLRLSCAASGSILSGYAMGWYRQAPGKETELVAAITSGGDTNYADSVKGRFTISRDNAKNTVYLQMNSLKPEDTAVYYCNRRGDFRIAYYDPMDYWGQGTQVTVSS | low polyreactivity |
| QVQLVESGGGLVQAGGSLRLSCAASGSILSLYTMGWYRQAPGKERELVAAITSRGTRTYYADSVKGRFTISRDYAKNTVYLQMNRLKPEDTAVYYCAAGSYYWGQGTQVTVSS | high polyreactivity |
| QVQLVESGGGLVQAGGSLRLSCAASGSILSSYAMGWYRQAPGKERELVAAISYTGDSTYYADSVKGRFTISRDNAKNTVYLQMNSLKPEDTAVYYCAAELLPPYYYRWLEYWGQGTQVTVSS | low polyreactivity |
| QVQLVESGGGLVQAGGSLRLSCAASGSILSTYAMGWYRQAPGKERELVASISSNAGSTYYADSVKGRFTISRDNAKNTVYLQMNSLKPEDTAVYYCATESYVEGDYWGQGTQVTVSS | low polyreactivity |
| QVQLVESGGGLVQAGGSLRLSCAASGSILSYYVMGWYRPAPGKERELVAAITSDGSTNYADSVKGRFTISRDNAKNTVYLQMNSLKPEDTAVYYCAAVIAWYYGVQDVYYLGLYDYWGQGTQVTVSS | low polyreactivity |
| QVQLVESGGGLVQAGGSLRLSCAASGSILTHYAMGWYRQAPGKERELVAGIPWSGTSTYYADSVKGRFTISRDNAKNTVYLQMNSLKPEDTAVYYCNARHYGWGFAWKYDYWGQGTQVTVSS | low polyreactivity |
| QVQLVESGGGLVQAGGSLRLSCAASGSILTVYAMGWYRQAPGKERELVARIRSGDRTYYADSVKGRFTISRDNAKNSVYLQMNSLKPEDTAVYYFAAGSQLRYYHTNWDSFNYWGQGTQVTVSS | low polyreactivity |
| QVQLVESGGGLVQAGGSLRLSCAASGSILTWYPMGWYRQAPRKERELVAAITRGGSTYADSVKGRFTISRDNAKNTVYLQMNILKPEDTAVYYCKAVYGVYVFNYWGQGTQVSVSS | low polyreactivity |
